Data published in US20250152742A1, “COMPOSITIONS AND METHODS FOR NEUROLOGICAL DISEASES” (Trames Bio, Inc., priority 2022, published 2025).

System: engineered chimeric receptor SEQ ID NO: 33 and its mutants (human α7-nAChR ligand binding domain / human GlyRα1 ion pore domain) in Lenti-X 293T cells
Assay: YFP fluorescence quenching anion reporter plate reader assay (percent quench, EC50)
Format: cell-based
Settings: for YFP fluorescence quenching using CNL001 (percent quench): receptor named in row; for YFP fluorescence quenching using Varenicline, 3 nM var: ligand Varenicline 3 nM; for YFP fluorescence quenching using Varenicline, 30 nM var: ligand Varenicline 30 nM; for YFP fluorescence quenching using Varenicline, 300 nM var: ligand Varenicline 300 nM; for YFP fluorescence quenching using Varenicline, 500 nM var: ligand Varenicline 500 nM; for YFP fluorescence quenching using Varenicline, 1 uM var: ligand Varenicline 1 uM
Excerpt: To screen these mutant LGICs for those having novel response profiles to ligands, an anion reporter assay was developed to assess the function of the LGICs in a high throughput format. In this assay, cells expressing a YFP reporter whose fluorescence is quenched in the presence of anion are transfected with DNA encoding the channel of interest. Upon exposure to ligand, channels that are activated will flux anion, resulting in a dose-dependent quench of the YFP that can be detected on a plate reader. The greater the quench signal (i.e., the more positive the value), the higher the ligand activity on the receptor is.
Lenti-X 293T cells (LX293T, Clontech) were maintained in DMEM containing 10% FBS and 1% penicillin/streptomycin (Invitrogen). […] Two days before assay, cells were split at a density of 20,000 cells/well in a 96-well tissue culture plate coated with poly-d lysine (Thermo Scientific). The next day, the cells were transiently transfected with 0.1 μg of DNA per well using standard Fugene protocol (Promega). On the day of assay, cells were washed 2 times in 1X extracellular solution (1X ECS: 140 mM NaCl, 5 mM KCl, 1 mM MgCl2, 2 mM CaCl2, 10 mM HEPES, 10 mM glucose, pH 7.2, mOsms 300). After the last wash, 100 μL of 1X ECS was added to the wells and the plate was incubated at 37° C. for 30 min. While incubating the plate, the drugs were diluted to a 2X concentration in 1X ECS-Nal (same components as 1X ECS except the 140 mM NaCl was replaced by 140 mM Nal). The plates were then read on a Flexstation3 (Molecular Devices). Each well, 8 wells at a time, of the plate is read for 2 min using a Flexstation3 (Molecular Devices) as follows: 1) a baseline YFP fluorescence is read for 17 sec, 2) 100 μL of ligand is added, and 3) the changes in YFP fluorescence are then measured every 1.3 sec for 1 minute and 43 seconds. The percent quench is calculated from the average fluorescence of the last 10 seconds of the read divided by the baseline average of the first 15 seconds prior to the ligand addition.
FIGS. 1A-1J provide heat maps of the percent quench of YFP fluorescence following stimulation by various doses of either acetylcholine or the non-native ligand as indicated in the Figures. CODA71 (SEQ ID NO: 33) was used as a control, and CODA75 (SEQ ID NO: 29, a non-responding chimeric engineered receptor) was used as the negative control. Quenching of the fluorescence signal, as indicated by blue shaded cells, indicate the level of engineered receptor activation by the non-native ligand at that concentration.

B1: CODA237: engineered receptor: R101M in SEQ ID NO: 33 (protein)
chain: MRCSPGGVWLALAASLLHVSLQGEFQRKLYKELVKNYNPLERPVANDSQPLTVYFSLSLLQIMDVDEKNQVLTTNIWLQMSWTDHYLQWNVSEYPGVKTVMFPDGQIWKPDILLYNSADERFDATFHTNVLVNSSGHCQYLPPGIFKSSCPMDLKNFPMDVQTCKLKFGSWSYGGWSLDLQMQEADISGYIPNGEWDLVGIPGKRSERFYECCKEPYPDVTFTVTMRRRMGYYLIQMYIPSLLIVILSWISFWINMDAAPARVGLGITTVLTMTTQSSGSRASLPKVSYVKAIDIWMAVCLLFVFSALLEYAAVNFVSRQHKELLRFRRKRRHHKSPMLNLFQEDEAGEGRFNFSAYGMGPACLQAKDGISVKGANNSNTTNPPPAPSKSPEEMRKLFIQRAKKIDKISRIGFPMAFLIFNMFYWIIYKIVRREDVHNQ
modifications: synthetic sequence of chimeric LGIC
YFP fluorescence quenching using CNL001 (percent quench) (1 nM CNL001, first column so headed): −2.114%
YFP fluorescence quenching using CNL001 (percent quench) (1 nM CNL001, second column so headed): −5.079%
YFP fluorescence quenching using TC-5619/Bradanicline (percent quench) (3 nM brd (TC-5619/Bradanicline)): −14.87%
YFP fluorescence quenching using CNL001 (percent quench) (10 nM CNL001, first column so headed): 15.096%
YFP fluorescence quenching using CNL001 (percent quench) (10 nM CNL001, second column so headed): 50.554%
YFP fluorescence quenching using TC-5619/Bradanicline (percent quench) (30 nM brd (TC-5619/Bradanicline)): 69.93%
YFP fluorescence quenching using CNL001 (percent quench) (50 nM CNL001, first column so headed): 66.585%
YFP fluorescence quenching using CNL001 (percent quench) (50 nM CNL001, second column so headed): 74.462%
YFP fluorescence quenching using ABT-126 (percent quench) (50 nM abt (ABT-126)): −24.34%
YFP fluorescence quenching using CNL001 (percent quench) (100 nM CNL001, first column so headed): 78%
YFP fluorescence quenching using CNL001 (percent quench) (100 nM CNL001, second column so headed): 77.411%
YFP fluorescence quenching (percent quench) (100 nM CNL002): −8.68%
YFP fluorescence quenching using ABT-126 (percent quench) (100 nM abt (ABT-126)): −20.22%
YFP fluorescence quenching using AZD-0328 (percent quench) (100 nM azd0328): −17.84%
YFP fluorescence quenching using ABT-126 (percent quench) (300 nM abt (ABT-126)): −20.57%
YFP fluorescence quenching using AZD-0328 (percent quench) (300 nM azd0328): −11.98%
YFP fluorescence quenching using TC-5619/Bradanicline (percent quench) (300 nM brd (TC-5619/Bradanicline)): 76.57%
YFP fluorescence quenching using CNL001 (percent quench) (1 uM CNL001, first column so headed): 79.06%
YFP fluorescence quenching using CNL001 (percent quench) (1 uM CNL001, second column so headed): 79.162%
YFP fluorescence quenching (percent quench) (1 uM CNL002): −2.24%
YFP fluorescence quenching using ABT-126 (percent quench) (1 uM abt (ABT-126)): −19.55%
YFP fluorescence quenching (percent quench) (10 uM ach (acetylcholine)): −16.79%
YFP fluorescence quenching (percent quench) (30 uM CNL002): 66.99%
YFP fluorescence quenching using AZD-0328 (percent quench) (30 uM azd0328): 81.2%
YFP fluorescence quenching (percent quench) (100 uM ach (acetylcholine)): −18.63%
YFP fluorescence quenching (percent quench) (1 mM ach (acetylcholine)): 46.28%
YFP fluorescence quenching (percent quench) (3 mM ach (acetylcholine)): 69.31%
YFP fluorescence quenching using Facinicline, 30 nM fac (ligand Facinicline 30 nM): −24.14
YFP fluorescence quenching using Facinicline, 300 nM fac (ligand Facinicline 300 nM): −14.38
YFP fluorescence quenching using Facinicline, 30 uM fac (ligand Facinicline 30 uM): 88.78
YFP fluorescence quenching using TC-6987, 1 uM tc6987 (ligand TC-6987 1 uM): −21.62
YFP fluorescence quenching using TC-6987, 10 uM tc6987 (ligand TC-6987 10 uM): 21.52
YFP fluorescence quenching using TC-6987, 500 uM tc6987 (ligand TC-6987 500 uM): 60.33
YFP fluorescence quenching using Varenicline, 3 nM var (first column): 18.429
YFP fluorescence quenching using Varenicline, 3 nM var (second column): 16.83
YFP fluorescence quenching using Varenicline, 30 nM var (first column): 23.07
YFP fluorescence quenching using Varenicline, 30 nM var (second column): 15.868
YFP fluorescence quenching using Varenicline, 300 nM var (first column): 18.819
YFP fluorescence quenching using Varenicline, 300 nM var (second column): 19.155
YFP fluorescence quenching using Varenicline, 500 nM var (first column): 19.117
YFP fluorescence quenching using Varenicline, 500 nM var (second column): 22.593
YFP fluorescence quenching using Varenicline, 1 uM var (first column): 24.525
YFP fluorescence quenching using Varenicline, 1 uM var (second column): 23.383
